Substitutions are numbered along the chain they refer to.
Key:
[1] = test system: T1, dCas12j-8 E258R+D313R E258R;D313R;D369A;E567A;D658A (bacteriophage (metagenome)); conditions: HEK293T cells; panel 1d (compare within a panel only); scale: mean GFP / mean GFP of wild type, printed, no background subtraction
T1 sequence: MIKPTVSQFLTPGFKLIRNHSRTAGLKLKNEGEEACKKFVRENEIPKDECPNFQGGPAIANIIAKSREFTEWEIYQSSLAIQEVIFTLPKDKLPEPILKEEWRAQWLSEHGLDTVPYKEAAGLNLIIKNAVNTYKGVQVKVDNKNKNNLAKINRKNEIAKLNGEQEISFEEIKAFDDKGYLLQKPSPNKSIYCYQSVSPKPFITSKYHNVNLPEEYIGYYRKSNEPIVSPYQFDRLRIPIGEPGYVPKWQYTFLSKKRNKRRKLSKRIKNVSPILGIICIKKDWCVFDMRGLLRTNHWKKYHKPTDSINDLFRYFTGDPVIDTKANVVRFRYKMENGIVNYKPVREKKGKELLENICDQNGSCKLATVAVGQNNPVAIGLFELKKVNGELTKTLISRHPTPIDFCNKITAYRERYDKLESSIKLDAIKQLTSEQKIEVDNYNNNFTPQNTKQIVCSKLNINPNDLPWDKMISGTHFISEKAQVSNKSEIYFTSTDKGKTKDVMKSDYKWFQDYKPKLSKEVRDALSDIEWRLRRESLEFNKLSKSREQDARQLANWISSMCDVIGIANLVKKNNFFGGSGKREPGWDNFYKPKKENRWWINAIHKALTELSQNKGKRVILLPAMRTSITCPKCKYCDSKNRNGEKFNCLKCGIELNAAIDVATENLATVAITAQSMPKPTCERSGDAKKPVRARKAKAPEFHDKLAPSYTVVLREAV

[2] = test system: T2, dCas12j-8 E101R E101R;D369A;E567A;D658A (bacteriophage (metagenome)); conditions: HEK293T cells; panel 1c (compare within a panel only); scale: mean GFP / mean GFP of wild type, printed, no background subtraction
T2 sequence: T1 sequence with E101R, R258E, R313D

[3] = test system: T3, dCas12j-8 D416R D416R;D369A;E567A;D658A (bacteriophage (metagenome)); conditions: HEK293T cells; panel 1c (compare within a panel only); scale: mean GFP / mean GFP of wild type, printed, no background subtraction
T3 sequence: T1 sequence with R258E, R313D, D416R

Work on “CUUUCAAGACUAAUAGAUUGCUCCUUACGAGGAGACACUCCCUAUCAGUGAUAGAG / TTNACTCCCTATCAGTGATAGAG / CTCTATCACTGATAGGGAGTNAA [TetO]” yielded a binding signal [1] of 3.3, a binding signal [2] of 0.711 and a binding signal [3] of 0.46.
